Measurements published in patent US7947462 (dated 2011).

B1: mkrm1 (receptor)
chain: ARPAPGPRSGPECFTANGADYRGTQSWTALQGGKPCLFWNETFQHPYNTLKYPNGEGGLGEHNYCRNPDGDVSPWCYVAEHEDGVYWKYCEIPACQMPGNLGCYKDHGNPPPLTGTSKTSNKLTIQTCISFCRSQRFKFAGMESGYACFCGNNPDYWKHGEAASTECNSVCFGDHTQPCGGDGRIILFDTLVGACGGNYSAMAAVVYSPDFPDTYATGRVCYWTIRVPGASRIHFNFTLFDIRDSADMVELLDGYTHRVLVRLSGRSRPPLSFNVSLDFVILYFFSDRINQAQGFAVLYQATKEEPPQERPAVNQTLAEVITEQANLSVSAAHSSKVLYVITPSPSHPPQTAPGSHSWAPSVGANSHRVEGWTVYGLATLLILTVTAVVAKILLHVTFKSHRVPASGDLRDCRQPGASGDIWTIFYEPSTTISIFKKKLKGQSQQDDRNPLVSD
B2: mkrm2 (receptor)
chain: GSLHSPGLSECFQVNGADYRGHQNYTGPRGAGRPCLFWDQTQQHSYSSASDPQGRWGLGAHNFCRNPDGDVQPWCYVAETEEGIYWRYCDIPTCHMPGYLGCFVDSGAPPALSGPSGTSTKLTVQVCLRFCRMKGYQLAGVEAGYACFCGSESDLARGRPAPATDCDQICFGHPGQLCGGDGRLGIYEVSVGSCQGNWSAPQGVIYSPDFPDEYGPDRNCSWVLGQLGAVLELTFRLFELADSRDRLELRDVSSGNLLRAFDGAHPPPPGPLRLRTAALLLTFRSDARGHAQGFALTYRGLQDTVEGRASPEDSTESLAGDPDGANASCSPKPGAAQASIGARVFSTVTAFSVLLLLLLSLLRLLRRRSCLLAPGKGSLAMGPSRGPGRSWAVWYRRPRGVALPCPPGDSQAEGPAAGYRPLSASSQSSLRSLVSAL

Tests used:
[1] = target: DKK1-AP; assay: Scatchard analysis, cell binding (transfected 293T); panel b
[2] = target: DKK2-AP; assay: as above
[3] = target: DKK1-AP; assay: Scatchard analysis, cell binding (transfected 293T); panel d, Kd1 (high-affinity site)
[4] = target: DKK2-AP; assay: Scatchard analysis, cell binding (transfected 293T); panel e, Kd1 (high-affinity site)
[5] = target: DKK2-AP; assay: Scatchard analysis, cell binding (transfected 293T); panel e, Kd2 (low-affinity site)
[6] = target: DKK1-AP; assay: Scatchard analysis, cell binding (transfected 293T); panel d, Kd2 (low-affinity site)

Row | Binder | Kd [1] [pM] | Kd [2] [pM] | Kd [3] [pM] | Kd [4] [pM] | Kd [5] [pM] | Kd [6] [pM]
1 | B1 | 280 | 350 | – | – | – | –
2 | B2 | – | – | 300 | 360 | 3000 | 2600
